Experimental data as given in patent publication US7842293B2, “Compositions and methods using anti-CS1 antibodies to treat multiple myeloma” (Facet Biotech Corporation, priority 2006, dated 2010).

Assays:
CS1 [1] = test: CS1 protein expression on L363 multiple myeloma cell line (flow cytometry); assay type: cell-based
Procedure: The effect of HuLuc63 and Thal treatment on the expression of CS1 in MM cell lines and mouse xenograft tumors was examined by flow cytometry and immunohistochemistry respectively, as described above.
(§1) CS1 protein expression was examined on the L363 multiple myeloma cell line. […] The combination of HuLuc63 with Thal was tested for anti-myeloma activity in vivo. L363 tumor-bearing mice were treated with HuLuc63, or isotype control antibody twice weekly for three weeks at 10 mg/kg. Thal was given 5 days a week at 50 mg/kg for a maximum of 15 doses to mice receiving either isotype control antibody or HuLuc63.

L363 cells = test: In vivo mouse multiple myeloma xenograft model, L363 tumors; conditions: L363 tumor-bearing mice, HuLuc63 10 mg/kg twice weekly for three weeks
Procedure: (§2) Six- to eight-week old female IcrTac:ICR-Prkdcscid mice obtained from Taconic Farms (Germantown, N.Y.) were inoculated with 1×10^7 OPM2 or L363 cells (German Collection of Microorganisms and Cell Cultures, Braunschweig, Germany) into the lower right flank. Caliper measurements were performed twice weekly to calculate tumor volume using the following formula: L×W×H/2, where L (length) is the longest side of the tumor in the plane of the animal's back, W (width) is the longest measurement perpendicular to the length and in the same plane and H (height) is taken at the highest point perpendicular to the back of the animal. When tumors reached an average size of about 100 mm^3, animals were randomized into 3 groups of 8-10 mice each and were treated with 1 or 10 mg/kg of HuLuc63 or isotype control antibody administered intraperitoneally twice a week for a maximum of 6 doses.
(§3) Tumor growth was monitored for a period of 1-2 months. Animal work was carried out under NIH guidelines (“Guide for the Care and Use of Laboratory Animals”) using protocols approved by IACUC at PDL BioPharma.
as §1
L363 tumor-bearing mice were treated with HuLuc63, or isotype control antibody twice weekly for three weeks at 10 mg/kg. Thal was given 5 days a week at 50 mg/kg for a maximum of 15 doses and Dex was given twice a week at 10 mg/kg for a maximum of 6 doses to mice receiving either isotype control antibody or HuLuc63.
To determine if an anti-angiogenic drug can enhance the antitumor effects of HuLuc63, a combination of HuLuc63 with Bevacizumab was tested for anti-myeloma activity in vivo, as described above. L363 tumor-bearing mice were treated with HuLuc63, or isotype control antibody twice weekly for three weeks at 10 mg/kg. Bevacizumab was given twice a week at 0.5 mg/kg for a maximum of 6 doses to mice receiving either isotype control antibody or HuLuc63.

CS1 [2] = test: CS1 protein expression on OPM2 multiple myeloma cell line (flow cytometry); assay type: cell-based
Procedure: The effect of HuLuc63 and Dex treatment on the expression of CS1 in MM cell lines and mouse xenograft tumors was examined by flow cytometry and immunohistochemistry respectively.
CS1 protein expression was examined on the OPM2 multiple myeloma cell line. […] The combination of HuLuc63 with Dex was tested for anti-myeloma activity in vivo. OPM2 tumor-bearing mice were treated with sub-optimal doses of HuLuc63 (1 mg/kg), or isotype control antibody twice weekly for three weeks. Dex was given twice a week at 10 mg/kg to mice receiving either isotype control antibody or HuLuc63.

OPM2 cells = test: In vivo mouse multiple myeloma xenograft model, OPM2 tumors; conditions: OPM2 tumor-bearing mice; HuLuc63 1 mg/kg (sub-optimal) twice weekly for three weeks; Dex 10 mg/kg twice a week; i.p.; FIG. 1
Procedure: as §2
Dex was administered intraperitoneally at a dose of 10 mg/kg twice a week for a maximum of 6 doses.
as §3
CS1 protein expression was examined on the OPM2 multiple myeloma cell line. […] The combination of HuLuc63 with Dex was tested for anti-myeloma activity in vivo. […]

myeloma cells = conditions: from U.S. Patent Publication No. 2005/0025763; cited from earlier work
myeloma tumor = conditions: myeloma mouse tumor model; from U.S. Patent Publication No. 2005/0025763; cited from earlier work
[3] = Thal 50 mg/kg 5 days a week, max 15 doses, FIG. 2
[4] = Bevacizumab 0.5 mg/kg twice a week, max 6 doses, FIG. 4

| Molecule | change in CS1 expression pre- or post-treatment (CS1 [1]) | anti-tumor activity (L363 cells; [3]) | anti-tumor activity (L363 cells; [4]) | change in CS1 expression pre- or post-treatment (CS1 [2]) | anti-tumor activity (OPM2 cells) | anti-tumor activity (L363 cells; Thal 50 mg/kg 5 days a week, Dex 10 mg/kg twice a week, FIG. 3) | lysis of myeloma cells via ADCC (myeloma cells) | reduction of tumor mass (myeloma tumor) |
| --- | --- | --- | --- | --- | --- | --- | --- | --- |
| O=C1CCC(N2C(=O)c3ccccc3C2=O)C(=O)N1 (centres unmarked) [Thal, Thalidomide, reference compound] | No significant change in CS1 expression | Significant anti-tumor activity |  |  |  |  |  |  |
| Bevacizumab: monoclonal antibody that targets the endothelial growth factor VEGF [reference compound] |  |  | did not exhibit significant anti-tumor activity |  |  |  |  |  |
| HuLuc63: humanized recombinant monoclonal IgG1 antibody directed to human CS1; heavy chain variable region SEQ ID NO: 5, light chain variable region SEQ ID NO: 6 (antibody, listed as Homo sapiens, V domains shown) VH: EVQLVESGGGLVQPGGSLRLSCAASGFDFSRYWMSWVRQAPGKGLEWIGEINPDSSTINYAPSLKDKFIISRDNAKNSLYLQMNSLRAEDTAVYYCARPDGNYWYFDVWGQGTLVTVSS VL: DIQMTQSPSSLSASVGDRVTITCKASQDVGIAVAWYQQKPGKVPKLLIYWASTRHTGVPDRFSGSGSGTDFTLTISSLQPEDVATYYCQQYSSYPYTFGQGTKVEIK | No significant change in CS1 expression | Significant anti-tumor activity | Significant anti-tumor activity | No significant change in CS1 expression | significant anti-tumor activity | significant anti-tumor activity | effectively mediates lysis of myeloma cells | more than 50% |
